Values belong to the binder of their own block, whether it stands above or below them. Square brackets hold non-standard residues; d marks the D form. GABA = NCCCC(=O)O
Assays:
Experiment in all cases: positional peptide library pulldown on immobilised Nb, LC-MS of supernatant; signal ratio to control GFP-Nb (1 = not captured, near 0 = captured)
BC2T P1F = target: T1, BC2T P1F
T1 construct: positional scanning library member
T1 peptide: Ac-FDRKAAVSHWQQ-NH2
How it was run: (§1)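 Unbound peptide left in supernatant after 1 h pulldown in PBS/0.01% CHAPS measured by reversed-phase LC-MS (8–30% eluent B gradient, 20 min).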

BC2T V7F = target: T2, BC2T V7F
T2 construct: positional scanning library member
T2 peptide: Ac-PDRKAAFSHWQQ-NH2
How it was run: as §1

BC2T P1W = target: T3, BC2T P1W
T3 construct: positional scanning library member
T3 peptide: Ac-WDRKAAVSHWQQ-NH2
How it was run: as §1

BC2T A6S = target: T4, BC2T A6S
T4 construct: positional scanning library member
T4 peptide: Ac-PDRKASVSHWQQ-NH2
How it was run: as §1

BC2T K4T = target: T5, BC2T K4T
T5 construct: positional scanning library member
T5 peptide: Ac-PDRTAAVSHWQQ-NH2
How it was run: as §1

BC2T A5T = target: T6, BC2T A5T
T6 construct: positional scanning library member
T6 peptide: Ac-PDRKTAVSHWQQ-NH2
How it was run: as §1

BC2T V7T = target: T7, BC2T V7T
T7 construct: positional scanning library member
T7 peptide: Ac-PDRKAATSHWQQ-NH2
How it was run: as §1

BC2T P1N = target: T8, BC2T P1N
T8 construct: positional scanning library member
T8 peptide: Ac-NDRKAAVSHWQQ-NH2
How it was run: as §1

BC2T R3N = target: T9, BC2T R3N
T9 construct: positional scanning library member
T9 peptide: Ac-PDNKAAVSHWQQ-NH2
How it was run: as §1

BC2T A5N = target: T10, BC2T A5N
T10 construct: positional scanning library member
T10 peptide: Ac-PDRKNAVSHWQQ-NH2
How it was run: as §1

BC2T V7Q = target: T11, BC2T V7Q
T11 construct: positional scanning library member
T11 peptide: Ac-PDRKAAQSHWQQ-NH2
How it was run: as §1

BC2T D2Y = target: T12, BC2T D2Y
T12 construct: positional scanning library member
T12 peptide: Ac-PYRKAAVSHWQQ-NH2
How it was run: as §1

BC2T R3Y = target: T13, BC2T R3Y
T13 construct: positional scanning library member
T13 peptide: Ac-PDYKAAVSHWQQ-NH2
How it was run: as §1

BC2T A5C(Abu) = target: T14, BC2T A5C(Abu) (SMILES …)
T14 construct: positional scanning library member
T14 peptide: Ac-PDRK[GABA]AVSHWQQ-NH2
How it was run: as §1

BC2T A6R = target: T15, BC2T A6R
T15 construct: positional scanning library member
T15 peptide: Ac-PDRKARVSHWQQ-NH2
How it was run: as §1

BC2T D2H = target: T16, BC2T D2H
T16 construct: positional scanning library member
T16 peptide: Ac-PHRKAAVSHWQQ-NH2
How it was run: as §1

BC2T R3H = target: T17, BC2T R3H
T17 construct: positional scanning library member
T17 peptide: Ac-PDHKAAVSHWQQ-NH2
How it was run: as §1

BC2T P1D = target: T18, BC2T P1D
T18 construct: positional scanning library member
T18 peptide: Ac-DDRKAAVSHWQQ-NH2
How it was run: as §1

BC2T A5D = target: T19, BC2T A5D
T19 construct: positional scanning library member
T19 peptide: Ac-PDRKDAVSHWQQ-NH2
How it was run: as §1

BC2T P1E = target: T20, BC2T P1E
T20 construct: positional scanning library member
T20 peptide: Ac-EDRKAAVSHWQQ-NH2
How it was run: as §1

BC2T R3E = target: T21, BC2T R3E
T21 construct: positional scanning library member
T21 peptide: Ac-PDEKAAVSHWQQ-NH2
How it was run: as §1

BC2T S8E = target: T22, BC2T S8E
T22 construct: positional scanning library member
T22 peptide: Ac-PDRKAAVEHWQQ-NH2
How it was run: as §1

ratio (BC2T P1F): 0.3 | ratio (BC2T V7F): 0.2 | ratio (BC2T P1W): 0.2 | ratio (BC2T A6S): 0.6 | ratio (BC2T K4T): 0.5 | ratio (BC2T A5T): 0.1 | ratio (BC2T V7T): 0.2 | ratio (BC2T P1N): 0.7 | ratio (BC2T R3N): 0.9 | ratio (BC2T A5N): 0.3 | ratio (BC2T V7Q): 0.4 | ratio (BC2T D2Y): 0.1 | ratio (BC2T R3Y): 0.9 | ratio (BC2T A5C(Abu)): 0.1 | ratio (BC2T A6R): 0.7 | ratio (BC2T D2H): 0.1 | ratio (BC2T R3H): 0.5 | ratio (BC2T P1D): 0.8 | ratio (BC2T A5D): 0.9 | ratio (BC2T P1E): 0.8 | ratio (BC2T R3E): 1
B1: BC2-NbR106E (VHH)
VHH: QVQLVESGGGLVQPGGSLTLSCTASGFTLDHYDIGWFRQAPGKEREGVSCINNSDDDTYYADSVKGRFTIFMDNAKDTVYLQMNSLKPEDTAIYYCAEARGCKRGEYEYDFWGQGTQVTVSS
notes: headlock mutant of BC2-Nb; immobilised on beads in this assay

B2: BC2 nanobody (VHH)
VHH: QVQLVESGGGLVQPGGSLTLSCTASGFTLDHYDIGWFRQAPGKEREGVSCINNSDDDTYYADSVKGRFTIFMDNAKDTVYLQMNSLKPEDTAIYYCAEARGCKRGRYEYDFWGQGTQVTVSS
notes: immobilised on beads in this assay; also called BC2-Nb; BC2 nanotrap (immobilised)
ratio (BC2T S8E): 0.7
